Consider 6 variants from paper PMC12516561 (2025).

The chains are these.
B1: iRhom2 wild type (HA-tagged) [human] / beta-COP, endogenous [human (endogenous in HEK293T)] (parent)
chain 1: MASADKNGGSVSSVSSSRLQSRKPPNLSITIPPPEKETQAPGEQDSMLPEGFQNRRLKKSQPRTWAAHTTACPPSFLPKRKNPAYLKSVSLQEPRSRWQESSEKRPGFRRQASLSQSIRKGAAQWFGVSGDWEGQRQQWQRRSLHHCSMRYGRLKASCQRDLELPSQEAPSFQGTESPKPCKMPKIVDPLARGRAFRHPEEMDRPHAPHPPLTPGVLSLTSFTSVRSGYSHLPRRKRMSVAHMSLQAAAALLKGRSVLDATGQRCRVVKRSFAFPSFLEEDVVDGADTFDSSFFSKEEMSSMPDDVFESPPLSASYFRGIPHSASPVSPDGVQIPLKEYGRAPVPGPRRGKRIASKVKHFAFDRKKRHYGLGVVGNWLNRSYRRSISSTVQRQLESFDSHRPYFTYWLTFVHVIITLLVICTYGIAPVGFAQHVTTQLVLRNKGVYESVKYIQQENFWVGPSSIDLIHLGAKFSPCIRKDGQIEQLVLRERDLERDSGCCVQNDHSGCIQTQRKDCSETLATFVKWQDDTGPPMDKSDLGQKRTSGAVCHQDPRTCEEPASSGAHIWPDDITKWPICTEQARSNHTGFLHMDCEIKGRPCCIGTKGSCEITTREYCEFMHGYFHEEATLCSQVHCLDKVCGLLPFLNPEVPDQFYRLWLSLFLHAGVVHCLVSVVFQMTILRDLEKLAGWHRIAIIFILSGITGNLASAIFLPYRAEVGPAGSQFGLLACLFVELFQSWPLLERPWKAFLNLSAIVLFLFICGLLPWIDNIAHIFGFLSGLLLAFAFLPYITFGTSDKYRKRALILVSLLAFAGLFAALVLWLYIYPINWPWIEHLTCFPFTSRFCEKYELDQVLH
chain 2: MTAAENVCYTLINVPMDSEPPSEISLKNDLEKGDVKSKTEALKKVIIMILNGEKLPGLLMTIIRFVLPLQDHTIKKLLLVFWEIVPKTTPDGRLLHEMILVCDAYRKDLQHPNEFIRGSTLRFLCKLKEAELLEPLMPAIRACLEHRHSYVRRNAVLAIYTIYRNFEHLIPDAPELIHDFLVNEKDASCKRNAFMMLIHADQDRALDYLSTCIDQVQTFGDILQLVIVELIYKVCHANPSERARFIRCIYNLLQSSSPAVKYEAAGTLVTLSSAPTAIKAAAQCYIDLIIKESDNNVKLIVLDRLIELKEHPAHERVLQDLVMDILRVLSTPDLEVRKKTLQLALDLVSSRNVEELVIVLKKEVIKTNNVSEHEDTDKYRQLLVRTLHSCSVRFPDMAANVIPVLMEFLSDNNEAAAADVLEFVREAIQRFDNLRMLIVEKMLEVFHAIKSVKIYRGALWILGEYCSTKEDIQSVMTEIRRSLGEIPIVESEIKKEAGELKPEEEITVGPVQKLVTEMGTYATQSALSSSRPTKKEEDRPPLRGFLLDGDFFVAASLATTLTKIALRYVALVQEKKKQNSFVAEAMLLMATILHLGKSSLPKKPITDDDVDRISLCLKVLSECSPLMNDIFNKECRQSLSHMLSAKLEEEKLSQKKESEKRNVTVQPDDPISFMQLTAKNEMNCKEDQFQLSLLAAMGNTQRKEAADPLASKLNKVTQLTGFSDPVYAEAYVHVNQYDIVLDVLVVNQTSDTLQNCTLELATLGDLKLVEKPSPLTLAPHDFANIKANVKVASTENGIIFGNIVYDVSGAASDRNCVVLSDIHIDIMDYIQPATCTDAEFRQMWAEFEWENKVTVNTNMVDLNDYLQHILKSTNMKCLTPEKALSGYCGFMAANLYARSIFGEDALANVSIEKPIHQGPDAAVTGHIRIRAKSQGMALSLGDKINLSQKKTSI
B2: iRhom2 wild type (HA-tagged) [human] / 14-3-3 epsilon, endogenous [human (endogenous in HEK293T)] (parent)
chain 1: B1 chain 1
chain 2: MDDREDLVYQAKLAEQAERYDEMVESMKKVAGMDVELTVEERNLLSVAYKNVIGARRASWRIISSIEQKEENKGGEDKLKMIREYRQMVETELKLICCDILDVLDKHLIPAANTGESKVFYYKMKGDYHRYLAEFATGNDRKEAAENSLVAYKAASDIAMTELPPTHPIRLGLALNFSVFYYEILNSPDRACRLAKAAFDDAIAELDTLSEESYKDSTLIMQLLRDNLTLWTSDMQGDGEEQNKEALQDVEDENQ

One assay covers variants of B1. The experiment in a line: co-immunoprecipitation (HA-IP) with western blot quantification. The note with it: iRhom1/2 DKO HEK293T cells, three independent experiments, read off a plot.
Turning to chain 1 P233A R234A R235A K236A R237A M238A S239A, the ratio to parent was determined as 1.05.

Turning to chain 1 S239A, the ratio to parent came to 0.98.

Take chain 1 P233A R234A R235A K236A R237A M238A: the ratio to parent came to 1.15.

Another assay covers variants of B2. The assay is described as above. The note with it: with 14-3-3 epsilon, iRhom1/2 DKO HEK293T cells, three independent experiments, read off a plot.
In the case of chain 1 P233A R234A R235A K236A R237A M238A, the ratio to parent was 1.3.

Turning to chain 1 P233A R234A R235A K236A R237A M238A S239A, the ratio to parent was 2.1.

Take chain 1 S239A: the ratio to parent stood at 0.92.
